Experimental findings from paper PMC10397247 are described below.

What all share (experiment): two-hybrid library CCmax;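 also: natural log of median RNA to DNA barcode read ratio; higher means stronger binding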
For one assay, the target named is T1, 4H369-AA.
T1 chain: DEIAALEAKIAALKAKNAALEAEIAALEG
The conditions noted are these: mean of both orientations.

The target in another assay is T2, 4H327-AA.
T2 chain: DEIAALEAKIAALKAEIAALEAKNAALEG
The conditions noted are these: mean of both orientations.

The next assay deals with T3, 4H4033-AA.
T3 chain: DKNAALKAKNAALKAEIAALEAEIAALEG
The following applies: mean of both orientations.

In another assay the target is T4, 4H55-AA.
T4 chain: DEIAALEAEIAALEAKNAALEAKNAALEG
The conditions noted are these: mean of both orientations.

A further assay has as its target T5, 4H3664-AA.
T5 chain: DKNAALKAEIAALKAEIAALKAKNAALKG
The conditions noted are these: mean of both orientations.

A further assay concerns the target T6, 4H3605-AA.
T6 chain: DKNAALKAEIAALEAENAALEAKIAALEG
The conditions noted are these: mean of both orientations.

In a further assay the target is T7, 4H2608-AA.
T7 chain: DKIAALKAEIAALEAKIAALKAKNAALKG
The following applies: mean of both orientations.

A further assay has as its target T8, 4H2513-AA.
T8 chain: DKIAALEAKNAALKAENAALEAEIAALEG
The following applies: mean of both orientations.

In another assay the target is T9, 4H3922-AA.
T9 chain: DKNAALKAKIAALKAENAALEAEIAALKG
The following applies: mean of both orientations.

The next assay addresses T10, 4H2726-AA.
T10 chain: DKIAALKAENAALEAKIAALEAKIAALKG
The conditions noted are these: mean of both orientations.

Another assay addresses T11, 4H2211-AA.
T11 chain: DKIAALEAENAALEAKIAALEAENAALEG

For the next assay, the target named is T12, 4H481-AA.
T12 chain: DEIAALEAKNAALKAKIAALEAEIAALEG
The following applies: mean of both orientations.

A further assay has as its target T13, 4H2536-AA.
T13 chain: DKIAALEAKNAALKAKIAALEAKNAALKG
The conditions noted are these: mean of both orientations.

The target of another assay is T14, 4H2935-AA.
T14 chain: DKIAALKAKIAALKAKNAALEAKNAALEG
The following applies: mean of both orientations.

In another assay the target is T15, 4H2238-AA.
T15 chain: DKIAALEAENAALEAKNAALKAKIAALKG
The following applies: mean of both orientations.

The target of another assay is T16, 4H662-AA.
T16 chain: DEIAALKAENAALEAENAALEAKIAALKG
The following applies: mean of both orientations.

For the next assay, the target named is T17, 4H3625-AA.
T17 chain: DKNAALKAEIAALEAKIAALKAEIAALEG
The following applies: mean of both orientations.

In the next assay the target is T18, 4H2614-AA.
T18 chain: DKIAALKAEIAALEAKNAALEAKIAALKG
The conditions noted are these: mean of both orientations.

The target of another assay is T19, O13-AA.
T19 chain: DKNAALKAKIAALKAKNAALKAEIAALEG
The following applies: mean of both orientations.

In the next assay the target is T20, O14-AA.
T20 chain: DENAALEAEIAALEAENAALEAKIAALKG
The conditions noted are these: mean of both orientations.

The next assay concerns the target T21, 4H_BCR.
T21 chain: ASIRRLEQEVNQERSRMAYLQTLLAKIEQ
The conditions noted are these: mean of both orientations.

A further assay concerns the target T22, 4H451-AA.
T22 chain: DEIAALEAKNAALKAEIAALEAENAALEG
The following applies: mean of both orientations.

The target in the next assay is T23, 4H384-AA.
T23 chain: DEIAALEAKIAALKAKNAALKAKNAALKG
The following applies: mean of both orientations.

A further assay has as its target T24, 4H_APH.
T24 chain: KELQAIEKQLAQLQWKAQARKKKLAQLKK
The following applies: mean of both orientations.

The next assay concerns the target T25, 4H3590-AA.
T25 chain: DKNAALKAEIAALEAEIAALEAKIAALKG
The conditions noted are these: mean of both orientations.

The target of a further assay is T26, O11-AA.
T26 chain: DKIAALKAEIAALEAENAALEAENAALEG
The following applies: mean of both orientations.

The target in a further assay is T27, 4H2736-AA.
T27 chain: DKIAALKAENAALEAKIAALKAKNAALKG
The following applies: mean of both orientations.

A further assay concerns the target T28, 4H2888-AA.
T28 chain: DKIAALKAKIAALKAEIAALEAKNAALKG
The following applies: mean of both orientations.

For the next assay, the target named is 4H_GCN4. The following applies: mean of both orientations.
Sequence of 4H_GCN4 (chain, as listed by the source): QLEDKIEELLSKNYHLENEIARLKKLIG
For a further assay, the target named is GCN2_T. The following applies: mean of both orientations.
The next assay has as its target T29, 4H510-AA.
T29 chain: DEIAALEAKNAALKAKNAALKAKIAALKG
The conditions noted are these: mean of both orientations.

The next assay has as its target T30, 4H3587-AA.
T30 chain: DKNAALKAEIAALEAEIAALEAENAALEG
The conditions noted are these: mean of both orientations.

Another assay addresses T31, 4H2622-AA.
T31 chain: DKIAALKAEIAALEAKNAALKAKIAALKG

The target of another assay is T32, 4H43-AA.
T32 chain: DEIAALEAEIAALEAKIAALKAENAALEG
The conditions noted are these: mean of both orientations.

The next assay concerns the target T33, 4H3049-AA.
T33 chain: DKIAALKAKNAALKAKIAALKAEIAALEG
The following applies: mean of both orientations.

The next assay deals with T34, 4H337-AA.
T34 chain: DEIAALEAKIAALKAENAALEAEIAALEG
The following applies: mean of both orientations.

The target in a further assay is T35, 4H4038-AA.
T35 chain: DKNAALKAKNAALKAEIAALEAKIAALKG
The conditions noted are these: mean of both orientations.

In a further assay the target is T36, 4H2705-AA.
T36 chain: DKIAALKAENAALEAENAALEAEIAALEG
The conditions noted are these: mean of both orientations.

Another assay concerns the target T37, 4H3905-AA.
T37 chain: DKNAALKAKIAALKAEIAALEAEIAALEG
The following applies: mean of both orientations.

DKIAALEAENAALEAKIAALEAENAALEG [4H2211-AA]: the interaction score in the assay with 4H369-AA is -1.37; with 4H327-AA, -1.1; with 4H4033-AA it was -1.42; with 4H55-AA, -1.44; with 4H3664-AA, -1.82; with 4H3605-AA it was -1.6. Besides, the interaction score with 4H2608-AA is -0.966; with 4H2513-AA it was -1.48; in the assay with 4H3922-AA, -1.15; with 4H2726-AA it was 0.569; with 4H2211-AA it was -0.565; with 4H481-AA, 1.2. Besides, the interaction score with 4H2536-AA is 1.92; with 4H2935-AA it was -1.25; in the assay with 4H2238-AA, -1.07; with 4H662-AA it was -1.54; with 4H3625-AA, -1.16; with 4H2614-AA it was -1.44.
Regarding DKIAALKAEIAALEAKNAALKAKIAALKG [4H2622-AA], the interaction score was 0.551 in the assay with O13-AA; 2.2 with O14-AA; -0.274 with 4H_BCR; -0.0617 with 4H451-AA; -1.12 with 4H384-AA; -1.87 with 4H_APH. Further, the interaction score in the assay with 4H3590-AA is 0.684; with O11-AA, 1.62; with 4H2736-AA, -0.125; in the assay with 4H2888-AA, 0.116; with 4H_GCN4, 0.309; in the assay with GCN2_T, 0.0302. Further, the interaction score with 4H510-AA was -0.508; with 4H3587-AA, 0.659; with 4H2622-AA, 1.07; with 4H43-AA, 1.57; with 4H3049-AA it was 0.212; in the assay with 4H3625-AA, 1.6. The interaction score was 2.35 with 4H337-AA, -1.2 with 4H4038-AA, 0.956 with 4H2705-AA and 1.43 with 4H3905-AA.
